We go through 2 substances from article PMC4164354.

Experiment [1] addresses native monomeric bovine lactoferrin (NM-bLf) (bovine). Description: SDS-PAGE; NM-bLf stored at high concentration; denaturing SDS-PAGE; data not shown.
Experiment [2] has as its target bovine lactoferrin purified from bovine colostrum as the high molecular weight biomacromolecular complex (HMW-bLf) (bovine). As to the kind of experiment: SDS-PAGE and Western blot; 3 mg mL^-1 HMW-bLf in 50 mM Tris HCl pH 7.5 with 1 M NaCl, 1 day at 37°C; gradient SDS-PAGE (reducing gel), blot probed with goat anti-bLf. (In general: Immunoblotting shows a protein as a band on a membrane.)

“And” between values parts separate entries of the source, which are not always exact repeats. Identical values can stand only once.

As usually defined, the stoichiometry N is a count of units in the complex or per binding partner. Take “native monomeric bovine lactoferrin (NM-bLf) (natural protein)”: the stoichiometry N in experiment [1] was 3 and 2.
Turning to “bovine lactoferrin purified from bovine colostrum as the high molecular weight biomacromolecular complex (HMW-bLf) (natural protein)”, the stoichiometry N in experiment [2] came to 2.
